Results published in US20100286027A1, “ANTI-BACTERIAL COMPOSITIONS” (priority 2008, published 2010).
Values after ≈ are worked out from the molar mass of the structure shown.

Key:
[1] = test system: Listeria monocytogenes (7644); assay: BacTiter-Glo bacterial ATP content viability assay
[2] = test system: Bacillus Subtilis (6633); assay: BacTiter-Glo bacterial ATP content viability assay; conditions: for B. subtilis viability by ATP-coupled luminescence assay: FIG. 12, full length protein
[3] = test system: Enterococcus faecalis (29212); assay: BacTiter-Glo bacterial ATP content viability assay; conditions: for E. faecals viability by ATP-coupled luminescence assay: FIG. 12, full length protein
[4] = test system: Staphylococcus aureus (29213); assay: BacTiter-Glo bacterial ATP content viability assay; conditions: for S. aureus viability by ATP-coupled luminescence assay: FIG. 12, full length protein
[5] = test system: Bacteroides fragilis NB85001; assay: MIC against anaerobic bacteria; type: cell-based; conditions: read-out: minimal inhibitory concentration (MIC)
[6] = test system: Prevotella intermedia NB88001; assay: MIC against anaerobic bacteria; type: cell-based; conditions: read-out: minimal inhibitory concentration (MIC)
[7] = test system: Eubacterium lentum NB94001; assay: MIC against anaerobic bacteria; type: cell-based; conditions: read-out: minimal inhibitory concentration (MIC)
[8] = test system: Peptostreptococcus anaerobius NB97001; assay: MIC against anaerobic bacteria; type: cell-based; conditions: read-out: minimal inhibitory concentration (MIC)
[9] = test system: Propionibacterium acnes NB99001; assay: MIC against anaerobic bacteria; type: cell-based; conditions: Cutibacterium acnes, read-out: minimal inhibitory concentration (MIC)
[10] = test system: E. coli NB27005* (TolC efflux pump mutant); assay: MIC against aerobic gram negative bacteria, efflux pump mutant; type: cell-based, Escherichia coli; conditions: aerobic gram negative; E. coli NB27005*, TolC efflux pump mutant strain
[11] = test system: H. influenzae NB65027-CDS0021* (TolC efflux pump mutant); assay: as above; type: cell-based, Haemophilus influenzae; conditions: aerobic gram negative; H. influenzae NB65027-CDS0021*, TolC efflux pump mutant strain
[12] = test system: L. monocytogenes; assay: Bacterial growth inhibition (FIG. 15); type: cell-based, Listeria monocytogenes; conditions: FIG. 15 Panel C
[13] = test system: lawn of the indicated bacteria; assay: Agar diffusion assay; conditions: FIG. 11 Panel D; 0.5 mg/ml in sterile PBS per well
[14] = test system: Streptococcus pneumoniae (49619); assay: BacTiter-Glo bacterial ATP content viability assay; conditions: gram +, +/− SD, n = 3, >100 = activity detected but <50% inhibition
[15] = test system: Escherichia coli (8739); assay: BacTiter-Glo bacterial ATP content viability assay; conditions: gram −, +/− SD, n = 3, >100 = activity detected but <50% inhibition
[16] = test system: Escherichia coli (25922); assay: BacTiter-Glo bacterial ATP content viability assay; conditions: gram −, +/− SD, n = 3, >100 = activity detected but <50% inhibition
[17] = test system: Klebsiella pneumoniae (700603); assay: BacTiter-Glo bacterial ATP content viability assay; conditions: gram −, +/− SD, n = 3, >100 = activity detected but <50% inhibition
[18] = test system: Pseudomonas aeruginosa (27853); assay: BacTiter-Glo bacterial ATP content viability assay; conditions: gram −, +/− SD, n = 3, >100 = activity detected but <50% inhibition
[19] = test system: Salmonella choleraesuis (13076); assay: BacTiter-Glo bacterial ATP content viability assay; conditions: gram −, +/− SD, n = 3, >100 = activity detected but <50% inhibition
[20] = test system: Stenotrophomonas maltophilia (17666); assay: BacTiter-Glo bacterial ATP content viability assay; conditions: gram −, +/− SD, n = 3, >100 = activity detected but <50% inhibition
[21] = test system: Streptococcus pneumoniae (ATCC 49619); assay: Gentamycin protection assay in stable 293 cell lines; conditions: 293 cells stably expressing the protein, infected with S. pneumoniae at MOI 10:1, versus control cells
[22] = test system: S. maltophilia; assay: Bacterial growth inhibition (FIG. 15); type: cell-based, Stenotrophomonas maltophilia; conditions: FIG. 15 Panel A
[23] = FIG. 10, 5×10^5 bacteria/100 μl, increasing concentrations, 6 hours at 37° C., relative to controls

Molecule: TLR2: recombinant LRR domain of Toll-like receptor 2; human TLR2-LRR is SEQ ID NO: 6
- L. monocytogenes viability by ATP-coupled luminescence assay [1, 23]: inhibit

Molecule: G908R: full length Nod2 protein carrying the Crohn's-associated G908R mutation
- L. monocytogenes viability by ATP-coupled luminescence assay ([1]; FIG. 12, full length protein): deficient
- B. subtilis viability by ATP-coupled luminescence assay [2]: deficient
- E. faecals viability by ATP-coupled luminescence assay [3]: deficient
- S. aureus viability by ATP-coupled luminescence assay [4]: deficient

Molecule: O=C(O)c1cn(C2CC2)c2cc(N3CCNCC3)c(F)cc2c1=O [Ciprofloxacin, reference compound]
- MIC [5]: 8 µg/mL (≈ 24.1 µM)
- MIC [6]: 1 µg/mL (≈ 3.02 µM)
- MIC [7]: 2 µg/mL (≈ 6.04 µM)
- MIC [8]: 1 µg/mL (≈ 3.02 µM)
- MIC [9]: 1 µg/mL (≈ 3.02 µM)

B1: Nod2 3020insC: recombinant LRR domain of the Crohn's-associated 3020insC mutant of Nod2 (deoxycytosine inserted at nucleotide position 3020) (protein)
chain: PAAPGEAKSVHAMPGFIWLIRSLYEMQEERLARKAARGLNVGHLKLTFCSVGPTECAALAFVLQHLRRPVALQLDYNSVGDIGVEQLLPCLGVCKALYLRDNNISDRGICKLIECALHCEQLQKLALFNNKLTDGCAHSMAKLLACRQNFLALRLGNNYITAAGAQVLAEGLRGNTSLQFLGFWGNRVGDEGAQALAEALGDHQSLRWLSLVGNNIGSVGAQALALMLAKNVMLEELCLEENHLQDEGVCSLAEGLKKNSSLKILKLSNNCITYLGAEALLQAP
- minimal inhibitory concentration (MIC) [10]: >128 microgram/ml
- minimal inhibitory concentration (MIC) [11]: 64 microgram/ml
- L. monocytogenes growth [12]: inhibited
- anti-bacterial activity by agar diffusion assay [13]: not
- L. monocytogenes viability by ATP-coupled luminescence assay ([1]; FIG. 12, full length protein): deficient
- antibacterial activity by bacterial ATP content (IC50), [LRR domain] ([1]; Listeria monocytogenes (7644), gram +, +/− SD, n = 3, >100 = activity detected but <50% inhibition): 16.5 +/− 13.3 microgram/ml
- antibacterial activity by bacterial ATP content (IC50), [LRR domain] ([2]; Bacillus Subtilis (6633), gram +, +/− SD, n = 3, >100 = activity detected but <50% inhibition): 54.0 +/− 20.2 microgram/ml
- B. subtilis viability by ATP-coupled luminescence assay [2]: deficient
- antibacterial activity by bacterial ATP content (IC50), [LRR domain] ([3]; Enterococcus faecalis (29212), gram +, +/− SD, n = 3, >100 = activity detected but <50% inhibition): None detected
- E. faecals viability by ATP-coupled luminescence assay [3]: deficient
- S. aureus viability by ATP-coupled luminescence assay [4]: deficient
- antibacterial activity by bacterial ATP content (IC50), [LRR domain] ([4]; Staphylococcus aureus (29213), gram +, +/− SD, n = 3, >100 = activity detected but <50% inhibition): None detected
- antibacterial activity by bacterial ATP content (IC50), [LRR domain] [14]: None detected
- antibacterial activity by bacterial ATP content (IC50), [LRR domain] [15]: None detected
- antibacterial activity by bacterial ATP content (IC50), [LRR domain] [16]: None detected
- antibacterial activity by bacterial ATP content (IC50), [LRR domain] [17]: None detected
- antibacterial activity by bacterial ATP content (IC50), [LRR domain] [18]: None detected
- antibacterial activity by bacterial ATP content (IC50), [LRR domain] [19]: None detected
- antibacterial activity by bacterial ATP content (IC50), [LRR domain] [20]: None detected
- number of gentamycin-protected intracellular bacteria [21]: No obvious protection

B2: Nalp3: recombinant LRR domain of Nalp3; human Nalp3-LRR is SEQ ID NO: 7 (protein, listed as Homo sapiens)
chain: MVQCVLPSSSHAACSHGLVNSHLTSSFCRGLFSVLSTSQSLTELDLSDNSLGDPGMRVLCETLQHPGCNIRRLWLGRCGLSHECCFDISLVLSSNQKLVELDLSDNALGDFGIRLLCVGLKHLLCNLKKLWLVSCCLTSACCQDLASVLSTSHSLTRLYVGENALGDSGVAILCEKAKNPQCNLQKLGLVNSGLTSVCCSALSSVLSTNQNLTHLYLRGNTLGDKGIKLLCEGLLHPDCKLQVLELDNCNLTSHCCWDLSTLLTSSQSLRKLSLGNNDLGDLGVMMFCEVLKQQSCLLQNLGLSEMYFNYETKSALETLQEEKPELTVVFEPSW
- L. monocytogenes viability by ATP-coupled luminescence assay [1, 23]: inhibit

B3: NAIP: Neuronal apoptosis inhibitor protein, an LRR protein (protein, UniProt Q13075 1-1403, looked up)
Baculoviral IAP …: MATQQKASDERISQFDHNLLPELSALLGLDAVQLAKELEEEEQKERAKMQKGYNSQMRSEAKRLKTFVTYEPYSSWIPQEMAAAGFYFTGVKSGIQCFCCSLILFGAGLTRLPIEDHKRFHPDCGFLLNKDVGNIAKYDIRVKNLKSRLRGGKMRYQEEEARLASFRNWPFYVQGISPCVLSEAGFVFTGKQDTVQCFSCGGCLGNWEEGDDPWKEHAKWFPKCEFLRSKKSSEEITQYIQSYKGFVDITGEHFVNSWVQRELPMASAYCNDSIFAYEELRLDSFKDWPRESAVGVAALAKAGLFYTGIKDIVQCFSCGGCLEKWQEGDDPLDDHTRCFPNCPFLQNMKSSAEVTPDLQSRGELCELLETTSESNLEDSIAVGPIVPEMAQGEAQWFQEAKNLNEQLRAAYTSASFRHMSLLDISSDLATDHLLGCDLSIASKHISKPVQEPLVLPEVFGNLNSVMCVEGEAGSGKTVLLKKIAFLWASGCCPLLNRFQLVFYLSLSSTRPDEGLASIICDQLLEKEGSVTEMCVRNIIQQLKNQVLFLLDDYKEICSIPQVIGKLIQKNHLSRTCLLIAVRTNRARDIRRYLETILEIKAFPFYNTVCILRKLFSHNMTRLRKFMVYFGKNQSLQKIQKTPLFVAAICAHWFQYPFDPSFDDVAVFKSYMERLSLRNKATAEILKATVSSCGELALKGFFSCCFEFNDDDLAEAGVDEDEDLTMCLMSKFTAQRLRPFYRFLSPAFQEFLAGMRLIELLDSDRQEHQDLGLYHLKQINSPMMTVSAYNNFLNYVSSLPSTKAGPKIVSHLLHLVDNKESLENISENDDYLKHQPEISLQMQLLRGLWQICPQAYFSMVSEHLLVLALKTAYQSNTVAACSPFVLQFLQGRTLTLGALNLQYFFDHPESLSLLRSIHFPIRGNKTSPRAHFSVLETCFDKSQVPTIDQDYASAFEPMNEWERNLAEKEDNVKSYMDMQRRASPDLSTGYWKLSPKQYKIPCLEVDVNDIDVVGQDMLEILMTVFSASQRIELHLNHSRGFIESIRPALELSKASVTKCSISKLELSAAEQELLLTLPSLESLEVSGTIQSQDQIFPNLDKFLCLKELSVDLEGNINVFSVIPEEFPNFHHMEKLLIQISAEYDPSKLVKLIQNSPNLHVFHLKCNFFSDFGSLMTMLVSCKKLTEIKFSDSFFQAVPFVASLPNFISLKILNLEGQQFPDEETSEKFAYILGSLSNLEELILPTGDGIYRVAKLIIQQCQQLHCLRVLSFFKTLNDDSVVEIAKVAISGGFQKLENLKLSINHKITEEGYRNFFQALDNMPNLQELDISRHFTECIKAQATTVKSLSQCVLRLPRLIRLNMLSWLLDADDIALLNVMKERHPQSKYLTILQKWILPFSPIIQK
- growth of S. maltophilia [22]: inhibited the growth
